# Laboratory results published in US20220152100A1, “METHODS FOR CONTROLLED ACTIVATION OR ELIMINATION OF THERAPEUTIC CELLS” (Bellicum Pharmaceuticals, Inc., priority 2014, published 2022).
# Entries after “also recorded” stand apart in the source; their conditions may differ. Where a SMILES comes first, the peptide text is derived from it. The star is where a group is joined. Cbz = O=C(OCc1ccccc1)*; CH2F = FC*
# Assays:
# [1] = test system: EBV-specific CTL lines (EBV-CTL); assay: CID-induced elimination/apoptosis of transduced EBV-CTLs (GFP, annexin V/7-AAD flow cytometry); format: cell-based, human; conditions: 100 μM for 1 hour prior to adding CID
# HEK293T/16 cells = assay: SEAP-based surrogate killing assay of iCasp9 mutants; format: cell-based, human; conditions: for effect on basal / catalytic activity: in words, versus wild type
# Description: Early passage HEK293T/16 cells (ATCC, Manassas, Va.) were maintained in IMDM, GlutaMAX™ (Life Technologies, Carlsbad, Calif.) supplemented with 10% FBS, 100 U/mL penicillin, and 100 […] until transfection in a humidified, 37° C., 5% CO2/95% air atmosphere. Cells in logarithmic-phase growth were transiently transfected with 800 ng to 2 μg of expression plasmid encoding iCasp9 mutants and 500 ng of an expression plasmid encoding SRα promoter driven SEAP per million cells in 15-mL conical tubes. […] GeneJammer® Transfection Reagent at a ratio of 3 μl per ug of plasmid DNA was used to transiently transfect HEK293T/16 cells in the absence of antibiotics. 100 μl or 2 mL of the transfection mixture was added to each well in 96-well or 6-well plate, respectively.
# Briefly, after 65° C. heat denaturation for 45 minutes to reduce background caused by endogenous (and serum-derived) alkaline phosphatases that are sensitive to heat, 5 μl of supernatants was added to 95 μl of PBS and added to 100 μl of substrate buffer, containing 1 μl of 100 mM 4-methylumbelliferyl phosphate (4-MUP; Sigma, St. Louis, Mo.) re-suspended in 2 M diethanolamine. Hydrolysis of 4-MUP by SEAP produces a fluorescent […] with excitation/emission (355/460 nm), which can be easily measured. Assays were performed in black opaque 96-well plates to minimize fluorescence leakage between wells. […] of the mixture was seeded onto each well of a 96-well plate. […] For the assay, 4-methylumbelliferyl phosphate substrate was hydrolyzed by SEAP to 4-methylumbelliferon, a metabolite that can be excited with 364 nm and detected with an emission filter of 448 nm. Since SEAP is used as a marker for cell viability, reduced SEAP reading corresponds with increased iCaspase-9 activities.
# Primary T cells = assay: AP1903-dependent cytotoxicity in primary T cells transduced with iCasp9 variants (CD3+CD19+ flow cytometry); format: cell-based, human; conditions: for killing of target T cells: AP1903 at Day 0 and day 4, within 10 days
# Description: The effects of various caspase polypeptides at mostly single copy in primary T cells was assayed. This may reflect more accurately how these suicide genes will be used therapeutically.
# Primary T cells from healthy donors (n=6) were transduced with retrovirus encoding mutant or wild-type iCasp9 or iCasp9-D330A, and the ΔCD19 cell surface marker. Following transduction, iCasp9-transduced T cells were purified using CD19-microbeads and a magnetic column.
# PG13 = format: cell-based; conditions: for CD19 mean fluorescence intensity (MFI): PG13 cross-transduced five times; for viral titers: upon HAT media treatment, HT1080 cells
molecule,measurement,setting,value
COC(=O)C[C@H](NC(=O)[C@H](C)NC(=O)[C@@H](NC(=O)OCc1ccccc1)C(C)C)C(=O)CF [zVAD-fmk] (Cbz-Val-Ala-Asp(OMe)-CH2F),effect on CID-induced apoptosis,[1],inhibited
T317C: chimeric modified Caspase-9 polypeptide (protein) VDGFGDVGALESLRGNADLAYILSMEPCGHCLIINNVNFCRESGLRTRTGSNIDCEKLRRRFSSLHFMVEVKGDLTAKKMVLALLELARQDHGALDCCVVVILSHGCQASHLQFPGAVYGTDGCPVSVEKIVNIFNGTSCPSLGGKPKLFFIQACGGEQKDHGFEVASTSPEDESPGSNPEPDACPFQEGLRTFDQLDAISSLPTPSDIFVSYSTFPGFVSWRDPKSGSWYVETLDDIFEQWAHSEDLQSLLLRVANAVSVKGIYKQMPGCFNFLRKKLFFKTSASRA,effect on basal / catalytic activity,HEK293T/16 cells,no effect
T317A: chimeric modified Caspase-9 polypeptide (protein) VDGFGDVGALESLRGNADLAYILSMEPCGHCLIINNVNFCRESGLRTRTGSNIDCEKLRRRFSSLHFMVEVKGDLTAKKMVLALLELARQDHGALDCCVVVILSHGCQASHLQFPGAVYGTDGCPVSVEKIVNIFNGTSCPSLGGKPKLFFIQACGGEQKDHGFEVASTSPEDESPGSNPEPDAAPFQEGLRTFDQLDAISSLPTPSDIFVSYSTFPGFVSWRDPKSGSWYVETLDDIFEQWAHSEDLQSLLLRVANAVSVKGIYKQMPGCFNFLRKKLFFKTSASRA,effect on basal / catalytic activity,HEK293T/16 cells,can reduce basal activity without a large shift in the IC50
F404Y: chimeric modified Caspase-9 polypeptide (protein) VDGFGDVGALESLRGNADLAYILSMEPCGHCLIINNVNFCRESGLRTRTGSNIDCEKLRRRFSSLHFMVEVKGDLTAKKMVLALLELARQDHGALDCCVVVILSHGCQASHLQFPGAVYGTDGCPVSVEKIVNIFNGTSCPSLGGKPKLFFIQACGGEQKDHGFEVASTSPEDESPGSNPEPDATPFQEGLRTFDQLDAISSLPTPSDIFVSYSTFPGFVSWRDPKSGSWYVETLDDIFEQWAHSEDLQSLLLRVANAVSVKGIYKQMPGCYNFLRKKLFFKTSASRA,killing of target T cells,Primary T cells,can kill target T cells indistinguishable from wild type Caspase-9 polypeptide or D330A within 10 days
D330G: chimeric modified Caspase-9 polypeptide (protein) VDGFGDVGALESLRGNADLAYILSMEPCGHCLIINNVNFCRESGLRTRTGSNIDCEKLRRRFSSLHFMVEVKGDLTAKKMVLALLELARQDHGALDCCVVVILSHGCQASHLQFPGAVYGTDGCPVSVEKIVNIFNGTSCPSLGGKPKLFFIQACGGEQKDHGFEVASTSPEDESPGSNPEPDATPFQEGLRTFDQLGAISSLPTPSDIFVSYSTFPGFVSWRDPKSGSWYVETLDDIFEQWAHSEDLQSLLLRVANAVSVKGIYKQMPGCFNFLRKKLFFKTSASRA,effect on basal / catalytic activity,HEK293T/16 cells,less basal activity than wild type Caspase-9
D330N: chimeric modified Caspase-9 polypeptide (protein) VDGFGDVGALESLRGNADLAYILSMEPCGHCLIINNVNFCRESGLRTRTGSNIDCEKLRRRFSSLHFMVEVKGDLTAKKMVLALLELARQDHGALDCCVVVILSHGCQASHLQFPGAVYGTDGCPVSVEKIVNIFNGTSCPSLGGKPKLFFIQACGGEQKDHGFEVASTSPEDESPGSNPEPDATPFQEGLRTFDQLNAISSLPTPSDIFVSYSTFPGFVSWRDPKSGSWYVETLDDIFEQWAHSEDLQSLLLRVANAVSVKGIYKQMPGCFNFLRKKLFFKTSASRA,effect on basal / catalytic activity,HEK293T/16 cells,less basal activity than wild type Caspase-9
"D330E: chimeric modified Caspase-9 polypeptide, SEQ ID NO: 188 (protein) VDGFGDVGALESLRGNADLAYILSMEPCGHCLIINNVNFCRESGLRTRTGSNIDCEKLRRRFSSLHFMVEVKGDLTAKKMVLALLELARQDHGALDCCVVVILSHGCQASHLQFPGAVYGTDGCPVSVEKIVNIFNGTSCPSLGGKPKLFFIQACGGEQKDHGFEVASTSPEDESPGSNPEPDATPFQEGLRTFDQLEAISSLPTPSDIFVSYSTFPGFVSWRDPKSGSWYVETLDDIFEQWAHSEDLQSLLLRVANAVSVKGIYKQMPGCFNFLRKKLFFKTSASRA",effect on basal / catalytic activity,HEK293T/16 cells,less basal activity than wild type Caspase-9
same,CD19 mean fluorescence intensity (MFI),PG13,enhanced CD19 mean fluorescence intensity
same,viral titers,PG13,higher viral titers
D330V: chimeric modified Caspase-9 polypeptide (protein) VDGFGDVGALESLRGNADLAYILSMEPCGHCLIINNVNFCRESGLRTRTGSNIDCEKLRRRFSSLHFMVEVKGDLTAKKMVLALLELARQDHGALDCCVVVILSHGCQASHLQFPGAVYGTDGCPVSVEKIVNIFNGTSCPSLGGKPKLFFIQACGGEQKDHGFEVASTSPEDESPGSNPEPDATPFQEGLRTFDQLVAISSLPTPSDIFVSYSTFPGFVSWRDPKSGSWYVETLDDIFEQWAHSEDLQSLLLRVANAVSVKGIYKQMPGCFNFLRKKLFFKTSASRA,effect on basal / catalytic activity,HEK293T/16 cells,less basal activity than wild type Caspase-9
D330S: chimeric modified Caspase-9 polypeptide (protein) VDGFGDVGALESLRGNADLAYILSMEPCGHCLIINNVNFCRESGLRTRTGSNIDCEKLRRRFSSLHFMVEVKGDLTAKKMVLALLELARQDHGALDCCVVVILSHGCQASHLQFPGAVYGTDGCPVSVEKIVNIFNGTSCPSLGGKPKLFFIQACGGEQKDHGFEVASTSPEDESPGSNPEPDATPFQEGLRTFDQLSAISSLPTPSDIFVSYSTFPGFVSWRDPKSGSWYVETLDDIFEQWAHSEDLQSLLLRVANAVSVKGIYKQMPGCFNFLRKKLFFKTSASRA,effect on basal / catalytic activity,HEK293T/16 cells,less basal activity than wild type Caspase-9
"D330A: chimeric modified Caspase-9 polypeptide, SEQ ID NO: 24 (protein) GFGDVGALESLRGNADLAYILSMEPCGHCLIINNVNFCRESGLRTRTGSNIDCEKLRRRFSSLHFMVEVKGDLTAKKMVLALLELARQDHGALDCCVVVILSHGCQASHLQFPGAVYGTDGCPVSVEKIVNIFNGTSCPSLGGKPKLFFIQACGGEQKDHGFEVASTSPEDESPGSNPEPDATPFQEGLRTFDQLAAISSLPTPSDIFVSYSTFPGFVSWRDPKSGSWYVETLDDIFEQWAHSEDLQSLLLRVANAVSVKGIYKQMPGCFNFLRKKLFFKTS","relative SEAP activity Units (basal, without AP1903)",HEK293T/16 cells; 1 μg iCasp9 per million cells,148928
same,"relative SEAP activity Units (basal, without AP1903)",HEK293T/16 cells; 2 μg iCasp9 per million cells,136863
same,effect on basal / catalytic activity,HEK293T/16 cells,"lowered basal activity, but not as low as in N405Q; also recorded: less basal activity than wild type Caspase-9"
same,sensitivity to AP1903 / killing of target cells,Primary T cells,more sensitive to AP1903 at low titers and kills at least as well as WT Caspase-9
same,IC50 of AP1903,"Primary T cells; 6 healthy donors, AP1903 0-100 nM, 24 hours",significantly lower
same,CD19 mean fluorescence intensity (MFI),PG13,enhanced CD19 mean fluorescence intensity
same,viral titers,PG13,higher viral titers
"N405Q: chimeric modified Caspase-9 polypeptide, SEQ ID NO: 26 (protein) GFGDVGALESLRGNADLAYILSMEPCGHCLIINNVNFCRESGLRTRTGSNIDCEKLRRRFSSLHFMVEVKGDLTAKKMVLALLELARQDHGALDCCVVVILSHGCQASHLQFPGAVYGTDGCPVSVEKIVNIFNGTSCPSLGGKPKLFFIQACGGEQKDHGFEVASTSPEDESPGSNPEPDATPFQEGLRTFDQLDAISSLPTPSDIFVSYSTFPGFVSWRDPKSGSWYVETLDDIFEQWAHSEDLQSLLLRVANAVSVKGIYKQMPGCFQFLRKKLFFKTS","relative SEAP activity Units (basal, without AP1903)",HEK293T/16 cells; 1 μg iCasp9 per million cells,179081
same,"relative SEAP activity Units (basal, without AP1903)",HEK293T/16 cells; 2 μg iCasp9 per million cells,175529
same,effect on basal / catalytic activity,HEK293T/16 cells,lowered basal activity; also recorded: lower basal activity than D330A
same,sensitivity to AP1903 / killing of target cells,Primary T cells,less sensitive to AP1903 and cannot kill target cells as efficiently within 24 hours
same,killing of target T cells,Primary T cells,can kill target T cells indistinguishable from wild type Caspase-9 polypeptide or D330A within 10 days
same,CD19 mean fluorescence intensity (MFI),PG13,enhanced CD19 mean fluorescence intensity
same,viral titers,PG13,higher viral titers
